Drawing on patent publication US20210309755A1 (FRED HUTCHINSON CANCER CENTER, published 2021), this text covers Kd, koff and kon for one molecule.

By Kd is commonly meant the equilibrium constant for the complex coming apart. Low readings indicate tighter binding, high ones weaker binding. As a reminder, the koff is the first-order rate constant of dissociation. A higher koff goes with fast dissociation. Usually kon stands for a measure of how fast the partners come together. A lower kon goes with slow association.

Assay [1] deals with T1, MSLN-Avi ectodomain (human ectodomain of MSLN) (human, UniProt Q13421 296-598, limits assumed).
T1 construct: extracellular domain; Expressed in 293-F cells as the fusion sFlag-His-Scn-tev-MSLN-Avi and cleaved with TEV protease; It was the analyte in SPR, and I take it to be the MSLN in the Fab:MSLN crystal complex as well; not shown: Avi tag
Kind of assay: written beside the structure of the 1A12 Fab on MSLN; no assay named on the sheet (the value is the rounded SPR fit of FIG. 7A). The protocol: (§1) Surface plasmon resonance (SPR) experiments were performed at 25° C. on a BIACORE™ T100 instrument (GE Healthcare) with a Series S CM4 chip using a running buffer of 10 mM HEPES, pH 7.4, 150 mM NaCl, 3 mM EDTA, 0.05% surfactant P20 with 0.1 mg/mL bovine serum albumin. Goat anti-human Fc antibody (Jackson Labs: 109005098) was amine coupled to the CM4 chip (˜2800 RUs) and each antibody was then captured on a single flow cell of immobilized goat anti-human Fc. The purified MSLN-Avi (discussed above) was run as a concentration series at 50 uL/min over the captured antibodies and the goat anti-human Fc reference surface. CM4 chip was regenerated with 10 mM glycine, pH1.5 for 30 sec at 50 uL/min. Data was double referenced and analyzed in BiaEval 2.0.4.

Assay [2] has as its target T1, MSLN-Avi ectodomain (human ectodomain …). Kind of assay: SPR, Biacore T100, 25 C; antibody captured on goat anti-human Fc (57.1 +/- 0.8 RUs), MSLN-Avi as analyte 2.0-1000 nM in duplicate, 1:1 fit. The protocol: as §1

T1 sequence (Q13421 other isoform, or with tags, fused parts or gaps limits assumed): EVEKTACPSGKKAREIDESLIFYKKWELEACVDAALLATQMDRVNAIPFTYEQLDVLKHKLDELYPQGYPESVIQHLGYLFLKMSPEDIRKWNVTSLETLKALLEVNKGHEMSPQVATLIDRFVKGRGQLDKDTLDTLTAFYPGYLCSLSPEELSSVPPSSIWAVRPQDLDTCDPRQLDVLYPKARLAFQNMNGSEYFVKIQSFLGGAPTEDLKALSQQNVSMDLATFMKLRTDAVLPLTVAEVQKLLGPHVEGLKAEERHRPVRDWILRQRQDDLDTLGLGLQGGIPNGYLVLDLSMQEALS

B1: 1A12 anti-MSLN antibody (antibody, human IgG1, V domains shown)
VH: EVQLLESGGGLVQPGGSLRLSCAASGLTFRSYAMTWVRQAPGKGLEWVSGISVSGGITYYADSVKGRFTISRDNSKNTLYLQMNSLRAEDTAVYYCAKRGAAVGSFDYWGQGTLVTVSS
VL: DIQMTQSPSSLSASVGDRVTITCRSSQGIGSWLAWYQQKPEKAPQSLIYAASSLQSGVPSRFSGSGSGTDFTLTISNLQPEDFATYYCQQYNSYPLTFGGGTKVEIK
notes: also called 1A12b; anti-MSLN 1A12 antibody
In the case of B1, the Kd in assay [1] amounted to 64 nM. In assay [2], this molecule registered a Kd of 64.4 nM, a koff of 0.00458 s⁻¹ and a kon of 71100 M⁻¹ s⁻¹.
